Data from patent publication US7094758B2, “Apoptotic compounds” (Board of Regents, The University of Texas System, priority 2000, dated 2006).

How the values were obtained:
[1] = molecular target: T1, second BIR (baculoviral IAP repeat) motif of XIAP (Homo sapiens, UniProt P98170); test: In vitro IAP (BIR) binding/interaction assay, GST-mediated pull-down
T1 construct: recombinant IAP fragment (second BIR (baculoviral IAP repeat) motif of XIAP)
Procedure: Interaction between AV peptoids and IAPs was examined by GST-mediated pull-down assays. Approximately 0.4 mg of a recombinant IAP fragment (second BIR (baculoviral IAP repeat) motif of XIAP) was bound to […] of glutathione resin as a GST-fusion protein and incubated with 0.5 mg of radiolabeled AV peptoids at room temperature. After extensive washing with an assay buffer containing 25 mM Tris, pH 8.0, 150 mM NaCl, and 2 mM dithiothreitol (DTT), the complex was eluted with 5 mM reduced glutathione and visualized by SDS-PAGE with Coomassie staining.
Smac stimulates activation of procaspase-3 by relieving the IAP inhibition^20, 21. All members of the IAP family contain at least one BIR (baculoviral IAP repeat) motif and many contain three^9.

[2] = system: procaspase-3; test: Hela cell extracts: radiolabeled procaspase-3 activation assay; assay type: biochemical; details: S-100 extracts of HeLa cells, 35S-labeled caspase-3; AV peptoids (50 nM), Smac peptides 30–1000 mM; 30° C., 1 hr
Procedure: […] S-100 extracts of HeLa cells were incubated alone (Control), or with AV peptoids (50 nM) nM, or with […] of N-terminal Smac peptides in different lengths. The reactions were carried out with the addition of 1 mM DATP, 1 mM additional MgCl2, 0.2 mg/ml horse heart cytochrome c, and […] of in vitro translated, ^35S-labeled caspase-3 in a final volume of […]. The reaction mixtures were incubated at 30° C. for 1 hr followed by electrophoresis on a 15% PAGE gel. The gel was subsequently transferred onto a nitrocellulose filter and exposed to a phosphoimaging cassette.

[3] = system: Wap-ras tumors; test: In vivo therapy in the WAP-RAS transgenic model; details: Wap-ras transgenic mice with well developed tumors; peptoid 20 mpk po, paclitaxel 5 mpk ip
Procedure: Peptoid and Paclitaxel combination efficacy is also evaluated in the Wap-ras transgenic model.
Peptoid (20 mpk/dosing po) was dissolved in 20% hydroxyl-propyl-betacyclodexatrin (Vehicle I). 0.2 ml of peptoid solution is the oral dosing volume. Paclitaxel (5 mpk/dosing ip) was dissolved in a diluted ethanol/cremophor EL solution (vehicle II) and the i.p. dosing volume for paclitaxel was 0.1 ml.
The mice are weighed, randomized, and ear-marked on Day 0. Peptoid treatment and Vehicle I treatment began on Day 1 and continued every 12 hours until Day 21. Paclitaxel and Vehicle II treatments are started on Day 4 and continued daily on Day 5, 6, and 7.

T1 sequence (P98170 124-240 limits assumed): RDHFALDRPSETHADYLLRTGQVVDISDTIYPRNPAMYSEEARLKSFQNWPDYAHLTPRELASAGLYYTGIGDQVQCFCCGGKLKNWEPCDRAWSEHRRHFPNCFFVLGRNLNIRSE

NH2-KQAIPVA-COOH (H-KQAIPVA-OH) [Smac-7R]
IAP Binding ([1]; Table 4, GST pull-down with radiolabeled AV peptoid, grades 0, ++, +++, key not given): 0
activation of procaspase-3 [2]: did not

CC(=O)O[C@H]1C(=O)[C@@]2(C)[C@H]([C@H](OC(=O)c3ccccc3)[C@]3(O)C[C@H](OC(=O)[C@H](O)[C@@H](NC(=O)c4ccccc4)c4ccccc4)C(C)=C1C3(C)C)[C@]1(OC(C)=O)CO[C@@H]1C[C@@H]2O [Paclitaxel]
tumor response to treatment, single agent [3]: do not respond

B1: Smac: Second mitochondria-derived activator of caspases (DIABLO); mature form contains 184 amino acids (protein, UniProt Q9NR28 22-239, looked up)
Diablo IAP-binding …: LCVPVVANFKKRCFSELIRPWHKTVTIGFGVTLCAVPIAQKSEPHSLSSEALMRRAVSLVTDSTSTFLSQTTYALIEAITEYTKAVYTLTSLYRQYTSLLGKMNSEEEDEVWQVIIGARAEMTSKHQEYLKLETTWMTAVGLSEMAAEAAYQTGADQASITARNHIQLVKLQVEEVHQLSRKAETKLAEAQIEELRQKTQEEGEERAESEQEAYLRED
specific binding/interaction with IAP (BIR domain of XIAP) ([1]; second or third BIR domain of XIAP): specifically interact
